Source: article PMC7954794, “Protein context shapes the specificity of SH3 domain-mediated interactions in vivo” (Nature Communications, 2021)

B1: S. cerevisiae Abp1 (full length; SH3 domain 535-592 mutated) / Hua2 (parent)
chain 1: MALEPIDYTTHSREIDAEYLKIVRGSDPDTTWLIISPNAKKEYEPESTGSSFHDFLQLFDETKVQYGLARVSPPGSDVEKIIIIGWCPDSAPLKTRASFAANFAAVANNLFKGYHVQVTARDEDDLDENELLMKISNAAGARYSIQTSSKQQGKASTPPVKKSFTPSKSPAPVSKKEPVKTPSPAPAAKISSRVNDNNDDDDWNEPELKERDFDQAPLKPNQSSYKPIGKIDLQKVIAEEKAKEDPRLVQKPTAAGSKIDPSSDIANLKNESKLKRDSEFNSFLGTTKPPSMTESSLKNDDDKVIKGFRNEKSPAQLWAERKAKQNSGNAETKAEAPKPEVPEDEPEGEPDVKDLKSKFEGLAASEKEEEEMENKFAPPPKKSEPTIISPKPFSKPQEPVKAEEAEQPKTDYKKIGNPLPGMHIEADNEEEPEENDDDWDDDEDEAAQPPLPSRNVASGAPVQKEEPEQEEIAPSLPSRNSIPAPKQEEAPEQAPEEEIEEEAEEAAPQLPSRSSAAPPPPPRRATPEKKPKENPWATAEYDYDAAEDNELTFVENDKIINIEFVDDDWWLGELEKDGSKGLFPSNYVSLGN
chain 2: MQQTKFGKMYLDHDSVVEYSEDEIVEADRITLGYKKRLSMIENQMRHLLEDFSLDVQQIEPILADLQKYYDAFLQLLQKRNKSLQCKRSTHQPVPSPMNSQTSTNAKVNLSGKLMKFQLNSVQKFDEENILRILQNKIEFEHYFQIDKGKKQKVLLLAVYQCLNGPTRLHKVLNIEGIIHNNSIRTILGKQVSSSKWTVFLYDVKLVLLAHRQDVPNLETSKMIVRYGDLFPCALYFKDHTAY

Variants of: B1
Assay: DHFR protein-fragment complementation in yeast (Abp1-DHFR F[1,2] x partner-DHFR F[3]), deep mutational scanning, second methotrexate selection vs reference
Details: with Hua2; S. cerevisiae, DHFR-PCA selection in liquid with methotrexate at 30 C, two 72 h selections (the score uses the second); reference = the pre-selection culture; not an affinity; value at the no-binding floor (a bound); scale: DMS score: mean over two replicates of log2(f_test/f_ref + 0.5)/ln 2, minus the synonymous-codon median

| Variant | screen value |
| --- | --- |
| chain 1 E550L | < -3.06 |
| chain 1 D566P | < -3.06 |
| chain 1 D566I | < -3.06 |
| chain 1 D566W | < -3.06 |
| chain 1 D566L | < -3.06 |
| chain 1 I562Q | < -3.06 |
| chain 1 I562E | < -3.06 |
| chain 1 I562Y | -3.03 |
| chain 1 I562P | < -3.06 |
| chain 1 I562K | -3.03 |
| chain 1 I562H | < -3.06 |
| chain 1 I562A | < -3.06 |
| chain 1 I562G | -3.04 |
| chain 1 I562D | < -3.06 |
| chain 1 I562R | < -3.06 |
| chain 1 A539I | -3.01 |
| chain 1 A539F | < -3.06 |
| chain 1 A539R | -3.02 |
| chain 1 A539D | -3 |
| chain 1 A539M | < -3.06 |
| chain 1 A539L | < -3.06 |
| chain 1 A539W | -3.01 |

| Variant | screen value |
| --- | --- |
| chain 1 A539K | < -3.06 |
| chain 1 A539Q | -3.03 |
| chain 1 A539N | < -3.06 |
| chain 1 A539Y | < -3.06 |
| chain 1 G581H | < -3.06 |
| chain 1 G581P | < -3.06 |
| chain 1 G581W | < -3.06 |
| chain 1 G581M | < -3.06 |
| chain 1 G581Q | < -3.06 |
| chain 1 G581N | < -3.06 |
| chain 1 G581I | < -3.06 |
| chain 1 G581F | -3.01 |
| chain 1 G581Y | < -3.06 |
| chain 1 G581L | < -3.06 |
| chain 1 G581T | < -3.06 |
| chain 1 G581K | -3.01 |
| chain 1 G581E | -3.02 |
| chain 1 T552L | -3.04 |
| chain 1 T552W | < -3.06 |
| chain 1 D568P | < -3.06 |
| chain 1 D577F | -2.98 |
| chain 1 D577I | -2.99 |

| Variant | screen value |
| --- | --- |
| chain 1 D577P | < -3.06 |
| chain 1 L574F | -3.03 |
| chain 1 L574D | < -3.06 |
| chain 1 L574W | -3.03 |
| chain 1 L574E | < -3.06 |
| chain 1 F553K | < -3.06 |
| chain 1 F553W | < -3.06 |
| chain 1 F553A | -3.03 |
| chain 1 F553G | -3.04 |
| chain 1 F553H | < -3.06 |
| chain 1 F553T | -3.01 |
| chain 1 F553R | < -3.06 |
| chain 1 F553N | < -3.06 |
| chain 1 F553E | < -3.06 |
| chain 1 F553Q | < -3.06 |
| chain 1 F553D | < -3.06 |
| chain 1 F553P | < -3.06 |
| chain 1 W569H | -3.05 |
| chain 1 W569P | < -3.06 |
| chain 1 W569I | -2.99 |
| chain 1 W569S | -2.99 |
| chain 1 W569N | < -3.06 |

| Variant | screen value |
| --- | --- |
| chain 1 W569D | -3.03 |
| chain 1 W569A | < -3.06 |
| chain 1 W569T | < -3.06 |
| chain 1 K580P | -2.98 |
| chain 1 E547P | < -3.06 |
| chain 1 I559E | -3 |
| chain 1 I559C | -3.01 |
| chain 1 I559Q | < -3.06 |
| chain 1 I559H | < -3.06 |
| chain 1 I559K | < -3.06 |
| chain 1 I559G | -3.05 |
| chain 1 I559P | < -3.06 |
| chain 1 I559W | < -3.06 |
| chain 1 I559R | -3.03 |
| chain 1 I559D | -3.04 |
| chain 1 I559A | < -3.06 |
| chain 1 Y543M | < -3.06 |
| chain 1 Y543P | < -3.06 |
| chain 1 Y543T | -3.01 |
| chain 1 Y543V | < -3.06 |
| chain 1 Y543E | < -3.06 |
| chain 1 Y543I | < -3.06 |

| Variant | screen value |
| --- | --- |
| chain 1 Y543L | -3.02 |
| chain 1 Y543G | -3.04 |
| chain 1 Y543R | -3.05 |
| chain 1 Y543A | < -3.06 |
| chain 1 L582G | -3 |
| chain 1 L582E | -3.03 |
| chain 1 L582D | -2.99 |
| chain 1 L582T | -3.01 |
| chain 1 L582A | -3.04 |
| chain 1 D567W | < -3.06 |
| chain 1 D567F | -2.99 |
| chain 1 D567L | < -3.06 |
| chain 1 V588P | < -3.06 |
| chain 1 V588H | < -3.06 |
| chain 1 V588K | -3.04 |
| chain 1 V588Q | -3.02 |
| chain 1 V588R | < -3.06 |
| chain 1 V588Y | < -3.06 |
| chain 1 V588S | < -3.06 |
| chain 1 V588N | < -3.06 |

Same assay, conditions: with Hua2; S. cerevisiae, DHFR-PCA selection in liquid with methotrexate at 30 C, two 72 h selections (the score uses the second); reference = the pre-selection culture; not an affinity; scale: DMS score: mean over two replicates of log2(f_test/f_ref + 0.5)/ln 2, minus the synonymous-codon median

| Variant | screen value |
| --- | --- |
| chain 1 K576Y | -1.6 |
| chain 1 K576W | -2.17 |
| chain 1 K576I | -1.18 |
| chain 1 K576P | -2.88 |
| chain 1 V565I | -1.06 |
| chain 1 I562S | -2.46 |
| chain 1 I562F | -2.51 |
| chain 1 I562C | -2.84 |
| chain 1 I562N | -1.85 |
| chain 1 A539T | -1.45 |
| chain 1 A539G | -2.8 |
| chain 1 A539E | -2.3 |
| chain 1 G581R | -2.96 |
| chain 1 T552P | -2.02 |
| chain 1 T552I | -1.99 |
| chain 1 T552M | -2.22 |
| chain 1 T552V | -2.72 |
| chain 1 T552C | -1.73 |
| chain 1 T552E | -1.32 |
| chain 1 N586Y | -2.41 |

| Variant | screen value |
| --- | --- |
| chain 1 N586F | -2.5 |
| chain 1 D577M | -2.7 |
| chain 1 D577G | -1.18 |
| chain 1 D577E | -1.09 |
| chain 1 D577Y | -2.59 |
| chain 1 L574P | -2.01 |
| chain 1 F553C | -2.38 |
| chain 1 W569R | -2.35 |
| chain 1 W569L | -2.34 |
| chain 1 W569E | -2.94 |
| chain 1 K558W | -2.78 |
| chain 1 K580W | -1.55 |
| chain 1 F564D | -2.53 |
| chain 1 F564S | -2.74 |
| chain 1 F564C | -1.62 |
| chain 1 F564I | -1.74 |
| chain 1 F564T | -2.07 |
| chain 1 F564W | -2.35 |
| chain 1 F564A | -2.55 |
| chain 1 E547W | -2.89 |

| Variant | screen value |
| --- | --- |
| chain 1 E547M | -1.68 |
| chain 1 E547A | -2.3 |
| chain 1 E555W | -1.84 |
| chain 1 I559M | -1.42 |
| chain 1 I559T | -2.21 |
| chain 1 Y543D | -2.57 |
| chain 1 Y543N | -1.79 |
| chain 1 Y543Q | -2.77 |
| chain 1 A545Y | -2.53 |
| chain 1 A545D | -1.35 |
| chain 1 L582Q | -2.88 |
| chain 1 L582S | -2.57 |
| chain 1 L582N | -2.32 |
| chain 1 D567Y | -1.92 |
| chain 1 V588I | -2.59 |
| chain 1 V588M | -1.92 |
| chain 1 V588L | -2.21 |
| chain 1 V588A | -1.52 |
| chain 1 V588D | -2.95 |
